Among the data in a protein production outcome set (Wang et al. 2014) are protein production values, retold here.
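Also: failed if final PepcDB status was selected cloned or expressed and not failed if soluble or beyond.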

This series can be described thus: label from the status in PepcDB records.
Turning to “MKRFINRRQELDFLEKQYREQNSSLVIIYGRRRIGKTALIKKFIEDKPAIYFLASEEAESQNIEYYKKAVGNFLKNPLIERLSGVGWDDIFDVIINAKINKKTVIVFDEFQNLCKTNPAFASIVQRIWDEKLKNHNFMLILSGSLVGMMQEHALSYSSPLYGRRTGQIKLKQFSFKEAKEFFPEASDDQFIWIYSIVGGVPKYLEMFKFEGDIYKAIEENILSRQSFLYEEPLFLLEKEVHEVGSYFSIIKSIALGNHKLSQIAQSLSTAQTKLTKYLNTLIDLDIVRREVPVTEEYPEKSKRGLYFINDNFIDFWFKFVYPYREQLELDNTEYVIENIKSKIVTNHISFIYEEVCRQILMDLIKTKEIDIQLDRIGKWWDSKSEIDIVGISKNTGHVVFGECKYSQRVVDIDVFFNLKKKAENIKVFPEQKELYILFSRTGFSERLLEFAKETENLILIKFP”, the protein production entry is on record as “failed”.

“ARYYQHNAIEAVLEAISQGKNRMLLTLATGTGKTFIAFQLAWKLFQAKWNISGEPTHRPRILFLADRNILANQAFNAFGAFDDDALVRIDPKEIKKKGKVPKNGSLFFSIFQTFMTTKGDKDFAHFYDYAPDFFDFIIIDECHRGGANDESTWRKILEYFSPAVQLGLTATPKRDVNGDTYKYFGEPLYTYSLKEGINDGYLTPFKVVQFTTTLDEYLYDPDDDVIEGDIDEARTYEEKDFNRIIEMEEREKQRVQLFMEAINQNEKTLVFCATQDHALAVRDLINQMKISTDPNYCVRVTANDGSIGETNLKTFQDNEKAIPTILTTSRKLSTGVDARNVRNIVLLRPINSMIEFKQIIGRGTRLFDNKDYFTIYDFVRAYEHFNDDEWDGEPTEPVAIDPEPRKEREKIDLDLEDEPEENRKPQKIKVKLADGKERELAHTQTTTFWDADGKPISAQEFIEKLFGDLPDLFKDEAELRTIWGKPDTRKSFLTGLAE”: the protein production entry was “failed”. As to “MSLNYEESNLIVFGVGFDGTTSNRPGARFASSSMRKEFYGLETYSPFLDLDLEDYNICDYGDLEISVGSTEQVLKEIYQETYKIVRDSKVPFMIGGEHLVTLPAFKAVHEKYNDIYVIHFDAHTDLREEYNNSKNSHATVIKRIWDIVGDNKIFQFGIRSGTKEEFKFATEEKHTYMEIGGIDTFENIVNMLNGKNIYLTIDLDVLDASVFPGTGTPEPGGVNYREFQEIFKIIKNSNINIVGCDIVELSPDYDTTGVSTVIACKILRELCLIISDKIKEGHHHHHH”, the protein production result is “not failed”. As to “MCIAVIGGMDRLERHYRQEAARTGFELRVFSQSENNIATKLKRFDALVIFTNKVSHRVRNEAMSAAKLNGIPVFQYHSCGVCTLRDCLNCLVLPAGGGTKLEHHHHHH”, the protein production entry is “failed”.

With “MSTDIDCIVIGAGVVGLAIARALAAGGHEVLVAEAAEGIGTGTSSRNSEVIHAGIYYPADSLKARLCVRGKHLLYEYCAARGVPHQRLGKLIVATSDAEASQLDSIARRAGANGVDDLQHIDGAAARRLEPALHCTAALVSPSTGIVDSHALMLAYQGDAESDGAQLVFHTPLIAGRVRPEGGFELDFGGAEPMTLSCRVLINAAGLHAPGLARRIEGIPRDSIPPEYLCKGSYFTLAGRAPFSRLIYPVPQHAGLGVHLTLDLGGQAKFGPDTEWIATEDYTLDPRRADVFYAAVRSYWPALPDGALAPGYTGIRPKISGPHEPAADFAIAGPASHGVAGLVNLYGIESPGLTASLAIAEETLARLAALEHHHHHH”, the protein production result was “not failed”.

Turning to “MKRIQVSPHIYKLESWFLLKMSAWIVKEDEGVYIVDTGMPYMGKRILKEAEKLGKVKGVLLTHGHSDHVGGLKKILDIQDLPVYVHTLDIKHMEGKEPFPGRKKREYLVEPGVAKPLPVDEDGEFRCFGNLVPYHTPGHSPGHVCYYHKKDRVLIGGDLFTSKRGKLQQPIKMFTADMNEAVRSGEIVKKLQPSKVSICHGNDIDNPHTQIDEYLTHYKYERNDQQKIKNEDRTIS”, the protein production result is listed as “failed”. Consider “MPPMPVPIRILSVLLLVAMSASATAAPKKAPPASPPSSAGASSLEPVLAGEFALQAGQLDDAARAYLDAAKAEAGDAGLAERAARISMLANDDPRAIEALALWRARAPSSMSMRSTEASLALRRNDLRTARRDLLGLLKEPDPRGWRFALIALANGGREPEASADVLEDLVKAGAIPNQIEAWQEFGRLALRMERPALAKRIVDEVVRRFPEEPRVALLHATQLQQEGKNDEALALLKNIEPQAVKDSELRGALAFAYDAMGQTEAAARVLSTGPQDTQTYGLRASMLAKEKDRSSLEALYAELKSNATKPDPDRRLLLGKIAEFLKRYDEAVEWYRGVPGGPQLSEARLRAASALYELGRKPEALAEARALQGDASADDDARRDAYVLEAELHQRADDAPGELDAFERGLAAYPDDSALLYARGLAWERRDDVPRAEADLRKILVTEPENVAALNALGYTLADRTTRYKEALALIDRARTADPDNPAIVDSYGWVLYRMGRTKEALVQLRRAWALVKDPEIAAHVGEVLWVSGKQDEARRYFDEARRLDPDNRALQRAVEKFGL”, for which the protein production result was “failed”. Take “SLRSMVSDSVDEIVDGVSKTTAEVINGRKSIAQYATSLIENNPEPDNVRTIISQPLIKNTFLLVGFGLEKDGSNINNDPSWNPGPTWDPRVRPWYKDAKNAGKLVITAPYADSASGEILVSVATPVKDSATGQFLGSIFYDVSLAELAELVNEVKLFDAGYVFIVSEDGTTIAHPKKEFNGKPMSEFLGESKINVDTHQVIINGKPYAVSFSDVEGEDWYVGVVIDEEIAYAALDELRRS”: the protein production entry is listed as “not failed”. With “MRLLFSFSCRRRWRERERLRRMREIKMIKLPHKKPIIFFCQLFLIATLIIACHQTTIHTSTNTCTPNYNPNQDYFPNKIKITHARGLAVEYHKHYKVVTIKNPWQNAKTQFQYVLVQCGTPTPQGFKQAQVITVPIHSIVSLSTTHLPHLAKLGVVDKLIGISNSKQVNTPDVVERIKAGKITQVGNNSNVDIERLLELNPDLVTTFGTGNSQTDSYSKLTEAGLKVGINAEYMEDTPLGRSEWLKFTALFFNQEEKAEKIFAEITDKYEQVAQKVKSVKNRPTVFVGFNFKGTWFMPGGNSYVAKYLADAGGDYLWSNEQSAGSLPLSFEVVLERATNADYWLNFSQSWQSLKDLLAEDNRYADFKSVKIGNLYNNNARVNESGGNDYWEGGISNPDIVLSDLIRILHPEILPNHQLFYYHKILK”, the protein production entry was “failed”. As for “MVSAFNTGRTDDVDEYIHPDYLNPATLEHGIHTGPKAFAQLVGWVRATFSEEARLEEVRIEERGPWVKAYLVLYGRHVGRLVGMPPTDRRFSGEQVHLMRIVDGKIRDHRDWPDFQGTLRQLGDPWPDDEGWRP”, the entry is “not failed”. Then “MWPLISNELYKIIKKKKFWITFIVFFALFLAYSIVQYSSEKKYYEPKQRIAMDKLEIKTEKKQLNSPGINAEQKKKIKQYIKQDEKDIKDKKKEDASKDLDWHLRLNKELIQKKYEYIKDKGKGKNEDTEDASISVMKDEYYRDNNLNPYDKTGDLAMDSFLSSKAFMQILVVFIIIAVATSDIVSSEYSPATIKMLLAKPASRAKILFSKFIAILVGNIFIIGIPQVITYLILSFMNGFPNLSQPIAVGRMYQYDSSVILSNHNVGVSPILGSSYLITEGKYLLYLALLDLLFILGCVSICFLISVLIKNSAITIGINVGLGVVMSIIGLMTLEGAIPKALSAITPFLIMTYSSTDVLLMGDMAKRANNPGITVGMGIVVFIVYTVVCMGISTFVFSKKDMLA”, with “failed”. Turning to “MEYEHITHSFEPVYDENSRILILGTLPSVASRENNFYYGHKQNRFWKLLAYLLDEPVPETIDEKKYMLFKNHIAIWDVIQSCDIKGSSDSSIKNVEPTDIRKILETADIKQVYANGNKAGALYKKYQLPLTGMEAVTLPSTSPANAAWSFERLCEAWTRILANL”, the protein production result is “failed”. Consider “MENIQDSVSEYTKDSAQKIDTDALYHEQMLKALYAGFGIRFCAFIIDLLIIFGVHSLILKPIYHFTNLDSAKLWIDYFSVGHLLDALVFYLYFVLMTKYFKQTLGKMICNIRVERMDRQQLTWTDVLFREWIGRIISGVFANLPYLVTIFTKKHRGIHDYFADTVVIKNKFEKFFYLK”, for which the protein production entry is “failed”. As for “TPEHRAVAREVAAETFVLLKNENHLLPLEEKGKIALIGPMADARNNMCGMWSMTCTPSRHGTLLEGIRSAVGDKAEILYAKGSNVYYDAEMEKGAVGIRPLERGNDQQLLAEALRTAARADVIVAAVGECAEMSGESPSRTNLEIPDAQQDLLKALVKTGKPVVLLLFTGRPLILNWESEHIPSILNVWFGGSETGDAVADVLFGKAVPCGKLTTTFPRSVGQLPLFYNHLNTGRPDPDNRVFNRYASNYLDESNEPLYPFGYGLSYTDF”, the entry is “not failed”.
